For six molecules, Kd results are on record in US20200317768A1 (published 2020).

For orientation: Kd means the free concentration of one partner at which half of the binding sites on the other are occupied at equilibrium, for simple one-to-one binding.

Common to all, as to experiment: SPR (Biacore), antibody captured on chip, FcgR extracellular domain as analyte, 25 C
On the technique in general: SPR reads the build-up and loss of mass on a sensor chip optically.

Assay [1] addresses T1, human FcγRIIb extracellular domain with C-terminal His-tag (human, UniProt P31994 43-217).
T1 construct: Expressed in FreeStyle 293 cells and purified; also called humanFcgRIIb; not shown: C-terminal His-tag
T1 sequence: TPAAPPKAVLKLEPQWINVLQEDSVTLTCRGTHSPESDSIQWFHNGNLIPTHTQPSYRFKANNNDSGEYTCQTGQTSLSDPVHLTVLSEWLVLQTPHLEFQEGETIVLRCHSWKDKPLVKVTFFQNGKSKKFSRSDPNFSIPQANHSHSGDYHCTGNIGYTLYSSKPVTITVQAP
The procedure: (§1) The kinetic analysis of interactions between these antibodies and FcγR was carried out using BIACORE® T200 or BIACORE® 4000 (GE Healthcare). HBS-EP+ (GE Healthcare) was used as the running buffer, and the measurement temperature was set to 25° C. A chip produced by immobilizing Protein A. Protein A/G or mouse anti-human IgG kappa light chain (BD Biosciences) onto a Series S Sensor Chip CM4 or CM5 (GE Healthcare) by the amine-coupling method was used. […] After the measurement, the antibody captured on the chip was washed off by allowing reaction with 10 mM glycine-HCl, pH1.5 and 25 mM NaOH so that the chip was regenerated and used repeatedly. The sensorgrams obtained as measurement results were analyzed by the 1:1 Langmuir binding model using the BIACORE® Evaluation Software to calculate the binding rate constant ka (L/mol/s) and dissociation rate constant kd (l/s), and the dissociation constant KD (mol/L) was calculated from these values. […] Regarding such interactions, KD values were calculated using the following 1:1 binding model described in BIACORE® T100 Software Handbook BR1006-48 Edition AE.
(§2) The resultant variants were expressed using M103202L889-SK1 as light chain and their affinity to human and cynoFcγRs were evaluated (Table 20).

Assay [2] concerns the target T2, cynomolgus monkey FcγRIIIaS extracellular domain with C-terminal His-tag (cynomolgus monkey, UniProt Q8SPW2 21-206 at identity 1.00)).
T2 construct: Expressed in FreeStyle 293 cells and purified; also called cyno FcγRIIIaS; cynoFcγRIIIaS; not shown: C-terminal His-tag
T2 chain: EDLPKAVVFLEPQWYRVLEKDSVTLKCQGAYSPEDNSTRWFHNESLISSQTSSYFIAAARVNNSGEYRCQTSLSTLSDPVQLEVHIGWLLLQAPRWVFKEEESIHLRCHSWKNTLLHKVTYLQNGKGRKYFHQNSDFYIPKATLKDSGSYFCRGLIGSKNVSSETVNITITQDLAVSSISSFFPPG
The procedure: as §1, §2

For assay [3], the target named is T3, human FcγRIIaR extracellular domain with C-terminal His-tag (human, UniProt P12318 34-217).
T3 construct: Expressed in FreeStyle 293 cells and purified; also called human FcγRIIa (type R); FcgRIIaR; not shown: C-terminal His-tag
T3 chain: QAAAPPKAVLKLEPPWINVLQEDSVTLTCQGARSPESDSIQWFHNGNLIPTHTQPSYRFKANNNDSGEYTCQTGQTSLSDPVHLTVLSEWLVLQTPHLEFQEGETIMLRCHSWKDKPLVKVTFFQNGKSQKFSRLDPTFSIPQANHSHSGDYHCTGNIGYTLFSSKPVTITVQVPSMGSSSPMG
The procedure: as §1, §2

Assay [4] concerns the target T4, cynomolgus monkey FcγRIIa1 extracellular domain with C-terminal His-tag (cynomolgus monkey).
T4 construct: Expressed in FreeStyle 293 cells and purified; also called cyno FcγRIIa1; cynoFcgRIIa1; not shown: C-terminal His-tag
T4 chain: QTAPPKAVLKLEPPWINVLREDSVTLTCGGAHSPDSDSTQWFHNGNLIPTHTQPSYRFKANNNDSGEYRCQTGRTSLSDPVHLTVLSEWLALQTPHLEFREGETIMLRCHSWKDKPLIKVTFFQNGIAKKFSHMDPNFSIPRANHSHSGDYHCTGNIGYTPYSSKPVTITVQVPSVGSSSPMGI
The procedure: as §1, §2

B1: MS_M103205H795-SG1/M103202L889-SK1 (antibody, human IgG1, kappa)
heavy: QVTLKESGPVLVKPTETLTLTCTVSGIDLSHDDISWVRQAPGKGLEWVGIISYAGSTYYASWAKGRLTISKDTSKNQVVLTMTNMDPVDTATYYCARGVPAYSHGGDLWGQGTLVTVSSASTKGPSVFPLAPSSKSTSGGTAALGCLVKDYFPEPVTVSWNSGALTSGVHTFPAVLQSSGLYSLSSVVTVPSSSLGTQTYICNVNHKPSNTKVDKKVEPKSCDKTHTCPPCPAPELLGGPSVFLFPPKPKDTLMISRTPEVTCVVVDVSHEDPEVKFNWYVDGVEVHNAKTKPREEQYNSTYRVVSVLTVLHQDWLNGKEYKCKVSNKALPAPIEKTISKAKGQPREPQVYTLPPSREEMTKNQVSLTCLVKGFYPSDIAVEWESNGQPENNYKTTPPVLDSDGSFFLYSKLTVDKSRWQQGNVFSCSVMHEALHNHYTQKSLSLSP
light: DIVMTQSPATLSLSPGERATLSCTSSQSVYHANWLSWFQQKPGQPPKLLIYWASTLAYGVPSRFSGSGSGTDFTLTISSLQPEDAATYYCAGGYGGGRYAFGQGTKVEIKRTVAAPSVFIFPPSDEQLKSGTASVVCLLNNFYPREAKVQWKVDNALQSGNSQESVTEQDSKDSTYSLSSTLTLSKADYEKHKVYACEVTHQGLSSPVTKSFNRGEC
notes: Anti-latent myostatin IgG; also called MS1032LO06-SG1
Turning to B1, the Kd in assay [1] worked out at 4.6 µM; in assay [2] it was 0.36 µM; in assay [3] it was 1.1 µM; in assay [4], 3.2 µM.

B2: M103205H795-MY170 / M103202L889-SK1 (antibody, human IgG1, kappa)
heavy: QVTLKESGPVLVKPTETLTLTCTVSGIDLSHDDISWVRQAPGKGLEWVGIISYAGSTYYASWAKGRLTISKDTSKNQVVLTMTNMDPVDTATYYCARGVPAYSHGGDLWGQGTLVTVSSASTKGPSVFPLAPSSKSTSGGTAALGCLVKDYFPEPVTVSWNSGALTSGVHTFPAVLQSSGLYSLSSVVTVPSSSLGTQTYICNVNHKPSNTKVDKKVEPKSCDKTHTCPPCPAPELLNGPSVFLFPPKPKDTLMISRTPEVTCVVVDVSEEDPEVKFNWYVDGVEVHNAKTKPREEQYNSTYRVVSVLTVLHQDWLNGKEYKCKVSNKALPAPIEKTISKAKGQPREPQVYTLPPSREEMTKNQVSLTCLVKGFYPSDIAVEWESNGQPENNYKTTPEVLDSDGSFFLYSKLTVDKSRWQQGNVFSCSVMHEALHNHYTQKSLSLSP
light: DIVMTQSPATLSLSPGERATLSCTSSQSVYHANWLSWFQQKPGQPPKLLIYWASTLAYGVPSRFSGSGSGTDFTLTISSLQPEDAATYYCAGGYGGGRYAFGQGTKVEIKRTVAAPSVFIFPPSDEQLKSGTASVVCLLNNFYPREAKVQWKVDNALQSGNSQESVTEQDSKDSTYSLSSTLTLSKADYEKHKVYACEVTHQGLSSPVTKSFNRGEC
notes: Position 396 variant derived from MY052, expressed with M103202L889-SK1 as light chain
With B2, the Kd turned out to be 1.6 µM in assay [1], 2.9 µM in assay [2], 2.5 µM in assay [3] and 2.3 µM in assay [4].

B3: M103205H795-MY052 / M103202L889-SK1 (antibody, human IgG1, kappa)
heavy: QVTLKESGPVLVKPTETLTLTCTVSGIDLSHDDISWVRQAPGKGLEWVGIISYAGSTYYASWAKGRLTISKDTSKNQVVLTMTNMDPVDTATYYCARGVPAYSHGGDLWGQGTLVTVSSASTKGPSVFPLAPSSKSTSGGTAALGCLVKDYFPEPVTVSWNSGALTSGVHTFPAVLQSSGLYSLSSVVTVPSSSLGTQTYICNVNHKPSNTKVDKKVEPKSCDKTHTCPPCPAPELLNGPSVFLFPPKPKDTLMISRTPEVTCVVVDVSEEDPEVKFNWYVDGVEVHNAKTKPREEQYNSTYRVVSVLTVLHQDWLNGKEYKCKVSNKALPAPIEKTISKAKGQPREPQVYTLPPSREEMTKNQVSLTCLVKGFYPSDIAVEWESNGQPENNYKTTPMVLDSDGSFFLYSKLTVDKSRWQQGNVFSCSVMHEALHNHYTQKSLSLSP
light: DIVMTQSPATLSLSPGERATLSCTSSQSVYHANWLSWFQQKPGQPPKLLIYWASTLAYGVPSRFSGSGSGTDFTLTISSLQPEDAATYYCAGGYGGGRYAFGQGTKVEIKRTVAAPSVFIFPPSDEQLKSGTASVVCLLNNFYPREAKVQWKVDNALQSGNSQESVTEQDSKDSTYSLSSTLTLSKADYEKHKVYACEVTHQGLSSPVTKSFNRGEC
notes: Fc variant of M103205H795-SG1, expressed with M103202L889-SK1 as light chain; parent of the position 396 variants
For the molecule B3, the dissociation constant (Kd) in assay [1] was found to be 0.72 µM; in assay [2], 1.5 µM; in assay [3] it was 1.4 µM; in assay [4], 1.4 µM.

B4: M103205H795-MY169 / M103202L889-SK1 (antibody, human IgG1, kappa)
heavy: QVTLKESGPVLVKPTETLTLTCTVSGIDLSHDDISWVRQAPGKGLEWVGIISYAGSTYYASWAKGRLTISKDTSKNQVVLTMTNMDPVDTATYYCARGVPAYSHGGDLWGQGTLVTVSSASTKGPSVFPLAPSSKSTSGGTAALGCLVKDYFPEPVTVSWNSGALTSGVHTFPAVLQSSGLYSLSSVVTVPSSSLGTQTYICNVNHKPSNTKVDKKVEPKSCDKTHTCPPCPAPELLNGPSVFLFPPKPKDTLMISRTPEVTCVVVDVSEEDPEVKFNWYVDGVEVHNAKTKPREEQYNSTYRVVSVLTVLHQDWLNGKEYKCKVSNKALPAPIEKTISKAKGQPREPQVYTLPPSREEMTKNQVSLTCLVKGFYPSDIAVEWESNGQPENNYKTTPDVLDSDGSFFLYSKLTVDKSRWQQGNVFSCSVMHEALHNHYTQKSLSLSP
light: DIVMTQSPATLSLSPGERATLSCTSSQSVYHANWLSWFQQKPGQPPKLLIYWASTLAYGVPSRFSGSGSGTDFTLTISSLQPEDAATYYCAGGYGGGRYAFGQGTKVEIKRTVAAPSVFIFPPSDEQLKSGTASVVCLLNNFYPREAKVQWKVDNALQSGNSQESVTEQDSKDSTYSLSSTLTLSKADYEKHKVYACEVTHQGLSSPVTKSFNRGEC
notes: as for B2
Regarding B4, the equilibrium dissociation constant (Kd) amounted to 1.3 µM in assay [1], 3.5 µM in assay [2], 2.5 µM in assay [3] and 2.3 µM in assay [4].

B5: M103205H795-MY168 / M103202L889-SK1 (antibody, human IgG1, kappa)
heavy: QVTLKESGPVLVKPTETLTLTCTVSGIDLSHDDISWVRQAPGKGLEWVGIISYAGSTYYASWAKGRLTISKDTSKNQVVLTMTNMDPVDTATYYCARGVPAYSHGGDLWGQGTLVTVSSASTKGPSVFPLAPSSKSTSGGTAALGCLVKDYFPEPVTVSWNSGALTSGVHTFPAVLQSSGLYSLSSVVTVPSSSLGTQTYICNVNHKPSNTKVDKKVEPKSCDKTHTCPPCPAPELLNGPSVFLFPPKPKDTLMISRTPEVTCVVVDVSEEDPEVKFNWYVDGVEVHNAKTKPREEQYNSTYRVVSVLTVLHQDWLNGKEYKCKVSNKALPAPIEKTISKAKGQPREPQVYTLPPSREEMTKNQVSLTCLVKGFYPSDIAVEWESNGQPENNYKTTPAVLDSDGSFFLYSKLTVDKSRWQQGNVFSCSVMHEALHNHYTQKSLSLSP
light: DIVMTQSPATLSLSPGERATLSCTSSQSVYHANWLSWFQQKPGQPPKLLIYWASTLAYGVPSRFSGSGSGTDFTLTISSLQPEDAATYYCAGGYGGGRYAFGQGTKVEIKRTVAAPSVFIFPPSDEQLKSGTASVVCLLNNFYPREAKVQWKVDNALQSGNSQESVTEQDSKDSTYSLSSTLTLSKADYEKHKVYACEVTHQGLSSPVTKSFNRGEC
notes: as for B2
On to B5, for which the Kd worked out at 1.7 µM in assay [1], 4.5 µM in assay [2], 2.3 µM in assay [3] and 2.2 µM in assay [4].

B6: M103205H795-MY171 / M103202L889-SK1 (antibody, human IgG1, kappa)
heavy: QVTLKESGPVLVKPTETLTLTCTVSGIDLSHDDISWVRQAPGKGLEWVGIISYAGSTYYASWAKGRLTISKDTSKNQVVLTMTNMDPVDTATYYCARGVPAYSHGGDLWGQGTLVTVSSASTKGPSVFPLAPSSKSTSGGTAALGCLVKDYFPEPVTVSWNSGALTSGVHTFPAVLQSSGLYSLSSVVTVPSSSLGTQTYICNVNHKPSNTKVDKKVEPKSCDKTHTCPPCPAPELLNGPSVFLFPPKPKDTLMISRTPEVTCVVVDVSEEDPEVKFNWYVDGVEVHNAKTKPREEQYNSTYRVVSVLTVLHQDWLNGKEYKCKVSNKALPAPIEKTISKAKGQPREPQVYTLPPSREEMTKNQVSLTCLVKGFYPSDIAVEWESNGQPENNYKTTPFVLDSDGSFFLYSKLTVDKSRWQQGNVFSCSVMHEALHNHYTQKSLSLSP
light: DIVMTQSPATLSLSPGERATLSCTSSQSVYHANWLSWFQQKPGQPPKLLIYWASTLAYGVPSRFSGSGSGTDFTLTISSLQPEDAATYYCAGGYGGGRYAFGQGTKVEIKRTVAAPSVFIFPPSDEQLKSGTASVVCLLNNFYPREAKVQWKVDNALQSGNSQESVTEQDSKDSTYSLSSTLTLSKADYEKHKVYACEVTHQGLSSPVTKSFNRGEC
notes: as for B2
With B6, the Kd in assay [1] came to 12 µM; in assay [2], 3.5 µM; in assay [3], 2.1 µM; in assay [4], 2.3 µM.
